Experiments:
[1] = target: Calcarisporiella thermophila CtHsp104ΔN (153–883 aa) (Calcarisporiella thermophila); test: SEC; purified Hsp104wt and Hsp104mt on a superdex-200 10/300GL column; molecular weights in Table S2
[2] = target: CtHsp104ΔN2R encoding the R328M/R757M mutations (Calcarisporiella thermophila); test: as above
[3] = target: the molecule itself; test: SEC; Hsp104fl and PCSK9 co-expressed in E. coli, complex purified by Ni-NTA, TEV cleavage and SEC; molecular weights in Table S2

## Calcarisporiella thermophila CtHsp104ΔN (153–883 aa) (domain or fragment)
[1]
  stoichiometry N: 6

## CtHsp104ΔN2R encoding the R328M/R757M mutations (domain or fragment)
[2]
  stoichiometry N: 6

B1: Thermochaetoides thermophila TtHsp104 full length (natural protein, UniProt A0A2Z6G185 1-926, looked up)
chain: MNSKMEFTDRAKKALEDAMALAEQYQHLQLQPVHLAVALLDPTPDPSKDQSAAPGTTSTLFRQVVERAHGDAQAFDRALKKKLVRLPSQDPPPDQVSMSAGCSSVLRKANELQKVQKDSYIAVDHLIAALAEDHTIQEALKEANIPKPKLVQDAIQAIRGNKRVDSRNADTEQENENLSKFCIDMTAMAREGKIDPVIGREEEIRRVIRILSRRTKNNPVLIGEPGVGKTTIVEGLAQRIVNADVPDNLAACKLLSLDVGALVAGSKYRGEFEERMKGVLKEIQESKETIILFVDEIHLLMGAGSSGEGGMDAANLLKPMLARGQLHCIGATTLAEYRKYIEKDAAFERRFQQVLVKEPSITETISILRGLKEKYEVHHGVNIADAAIVAAANLAARYLTSRRLPDSAVDLIDEAAAAVRVARESQPEIIDSLERRLRQLKIEIHALSREKDEASKARLAQAKQDAQNVEEELRPLREKYERERQRGKAIQEAKMKLEALRVKAEDASRMGDHSRAADLQYYAIPEQEAIIKRLEAEKAAADAALNANGADVGGSMITDVVGPDQINEIVARWTGIPVTRLKTSEKEKLLHMEQALSKIVVGQKEAVQSVSNAIRLQRSGLSNPNQPPSFLFCGPSGTGKTLLTKALAEFLFDDPKSMIRFDMSEYQERHSLSRMIGAPPGYVGHDAGGQLTEALRRRPFSILLFDEVEKAAKEVLTVLLQLMDDGRITDGQGRVVDAKNCIVVMTSNLGAEYLSRANNGKDGKIDPTTRELVMNTLRNYFLPEFLNRISSIVIFNRLTRREIRKIVDLRIAEIQKRLTDNDRNVTIKVSDEAKDKLGAQGYSPVYGARPLQRLLEKEVLNRLAILILRGQIREGEVACVELVDGKVQVLPNHPDSEPEDVDVDMESDDAVDEVAPDSMDEDIYND
notes: Hsp104 of Thermochaetoides thermophila, full length; Hexamer in the complex with PCSK9 by SEC; also called Hsp104fl; source: E. coli BL21, co-expressed with PCSK9, complex purified (Ni-NTA, TEV cleavage, SEC)
[3]
  stoichiometry N: 6

Source: article PMC12127886, “Mapping Hsp104 interactions using cross‐linking mass spectrometry” (FEBS Open Bio, 2025)
